Source: the supplement of paper PMC6757056
± gives the standard deviation of the averaged measurements.

B1: library; a variant is named by its letters at N, in order (parent)
chain: GCUGUCACCGGUGUAUUACCCUAGUGGUCGACCGGUCUGAUGAGUCUNNNNNNAGACGAAACAGC

What was measured:
hypoxanthine [1] = variants of: B1; assay: FACS-Seq fitted mean relative fluorescence mCherry/BFP without ligand (log10 relative fluorescence); ligand: hypoxanthine (xanthine aptamer); higher = higher reporter protein expression; conditions: HEK293T, ligand present: no
Method in brief: (§1)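 Fluorescence values are fitted normal means of bin counts along the mCherry/BFP axis. HEK293T libraries lentivirally carrying the ribozyme switch in an mCherry reporter, with an EF1α-BFP marker, were enriched, exposed to ligand or not for 48 h, and sorted into 6 bins. Genomic DNA per bin was PCR-amplified, barcoded and run on MiSeq. Means of log10(mCherry/BFP) were scaled to five spiked-in control ribozymes.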

hypoxanthine [2] = variants of: B1; assay: normalized RNA/DNA level with ligand (relative to sTRSVctl = 100) (log10 (% of sTRSVctl)); ligand: hypoxanthine (xanthine aptamer); higher = less ribozyme self-cleavage, higher mRNA level; conditions: ligand concentration (+) RNA-Seq: 5 mM, HEK293T, reporter: mCherry (pCS4076), ligand present: yes
Method in brief: (§2)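 Ribozyme switch library plasmids with mCherry reporters (eGFP in certain ligand experiments) went into HEK293T cells at 4 µg per 6-well well. Where ligand was used, it was applied 1 h before transfection, and total RNA was extracted with EDTA 72 h later for reverse transcription, amplification, barcoding and sequencing. RNA level is the RNA-to-DNA read ratio normalized to a spiked-in non-cleaving sequence or to the leading sequences, then scaled and log-transformed. Scaling was ×100 with log10, the leading set comprised 25 sequences, and the cutoff was ≥100 DNA reads.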

hypoxanthine [3] = variants of: B1; assay: normalized RNA/DNA level without ligand (relative to sTRSVctl = 100) (log10 (% of sTRSVctl)); ligand: hypoxanthine (xanthine aptamer); higher = less ribozyme self-cleavage, higher mRNA level; conditions: HEK293T, reporter: mCherry (pCS4076), ligand present: no
Method in brief: as §2

hypoxanthine [4] = variants of: B1; assay: FACS-Seq fitted mean relative fluorescence mCherry/BFP with ligand (log10 relative fluorescence); ligand: hypoxanthine (xanthine aptamer); ligand concentration (+) FACS-Seq: 5 mM; higher = higher reporter protein expression; conditions: HEK293T, ligand present: yes
Method in brief: as §1

Variant	FACS-Seq fitted mean (log10) (hypoxanthine [1])	normalized RNA/DNA level with ligand (log10) (hypoxanthine [2])	normalized RNA/DNA level without ligand (log10) (hypoxanthine [3])	FACS-Seq fitted mean (log10) (hypoxanthine [4])
GGGGUA	0.00434 ± 0.0088	1.94 ± 0.064	1.837 ± 0.0033	0.179 ± 0.094
AGGUAU	0.648 ± 0.15	1.871 ± 0.013	1.69 ± 0.03	0.665 ± 0.12
AGGUAA	0.414 ± 0.059	1.87 ± 0.022	1.6 ± 0.06	0.443 ± 0.069
AGGUAG	0.161 ± 0.019	1.73 ± 0.019	1.3 ± 0.047	0.537 ± 0.019
AGGUAC	0.133 ± 0.061	1.893 ± 0.017	1.72 ± 0.02	0.0782 ± 0.049
GGGGCC	-0.395 ± 0.028	1.97 ± 0.036	1.89 ± 0.077	0.0142 ± 0.039
GGGGCU	-0.598 ± 0.026	1.99 ± 0.074	2.008 ± 0.015	-0.677 ± 0.077
AGGGCA	0.0731 ± 0.046	1.97 ± 0.02	1.815 ± 0.016	0.174 ± 0.034
AGGGCG	0.511 ± 0.024	1.91 ± 0.028	1.57 ± 0.1	0.709 ± 0.089
GGGAGG	0.0166 ± 0.058	1.76 ± 0.021	1.3 ± 0.03	0.374 ± 0.033
GGGAGA	0.0269 ± 0.057	1.84 ± 0.02	1.429 ± 0.014	0.516 ± 0.024
GGGAGC	-0.04041 ± 0.0004	1.74 ± 0.068	1.16 ± 0.014	0.622 ± 0.026
GGGAGU	0.36 ± 0.0084	1.92 ± 0.047	1.63 ± 0.039	0.629 ± 0.011
GGUAAU	0.123 ± 0.061	1.918 ± 0.019	1.79 ± 0.035	0.314 ± 0.036
GGUAAG	0.176 ± 0.027	1.744 ± 0.013	1.25 ± 0.054	0.6778 ± 0.0029
GGUAAA	0.652 ± 0.01	1.9 ± 0.022	1.69 ± 0.007	0.581 ± 0.029
GGUAAC	0.447 ± 0.063	1.96 ± 0.067	1.82 ± 0.031	0.455 ± 0.018
UGGAAU	-0.0639 ± 0.013	1.887 ± 0.0035	1.659 ± 0.0056	0.205 ± 0.02

Variant	FACS-Seq fitted mean (log10) (hypoxanthine [1])	normalized RNA/DNA level with ligand (log10) (hypoxanthine [2])	normalized RNA/DNA level without ligand (log10) (hypoxanthine [3])	FACS-Seq fitted mean (log10) (hypoxanthine [4])
UGGAUG	0.4451 ± 0.0015	1.92 ± 0.025	1.659 ± 0.0063	0.341 ± 0.018
CGGUUC	0.133 ± 0.2	1.964 ± 0.01	1.79 ± 0.066	0.211 ± 0.024
GGGUGG	-0.2387 ± 0.0022	1.91 ± 0.046	1.54 ± 0.05	0.3262 ± 0.0019
GGGUGC	0.296 ± 0.1	1.9 ± 0.036	1.52 ± 0.017	0.348 ± 0.011
GGGUGA	0.0881 ± 0.05	1.95 ± 0.033	1.71 ± 0.031	0.487 ± 0.0065
GGGACG	0.352 ± 0.016	1.894 ± 0.014	1.51 ± 0.021	0.708 ± 0.031
AGUAUA	0.449 ± 0.0061	1.91 ± 0.079	1.7692 ± 0.0007	0.472 ± 0.057
UGGGUA	0.491 ± 0.13	1.95 ± 0.031	1.85 ± 0.061	0.699 ± 0.12
AGGCCA	0.668 ± 0.014	1.96 ± 0.016	1.86 ± 0.023	0.607 ± 0.064
AGGCCU	0.421 ± 0.032	1.94 ± 0.022	1.97 ± 0.069	0.554 ± 0.071
AGGCCG	0.147 ± 0.0087	1.89 ± 0.018	1.67 ± 0.054	0.366 ± 0.045
GGUCAC	0.222 ± 0.021	1.91 ± 0.05	1.825 ± 0.0063	0.633 ± 0.0098
CGGACA	0.518 ± 0.098	1.9 ± 0.068	1.66 ± 0.037	0.612 ± 0.016
CGUAUA	0.422 ± 0.015	1.91 ± 0.025	1.641 ± 0.007	0.566 ± 0.016
CGUAAA	0.554 ± 0.028	1.865 ± 0.0031	1.65 ± 0.034	0.4915 ± 0.0049
CGGAGU	0.289 ± 0.057	1.91 ± 0.024	1.78 ± 0.074	0.556 ± 0.041
CGGAGG	0.0652 ± 0.064	1.78 ± 0.12	1.28 ± 0.021	0.528 ± 0.0064
CGGGGC	0.7 ± 0.032	1.95 ± 0.021	1.896 ± 0.017	0.628 ± 0.0078
